In patent US20250289861A1 (IMMUNOFORGE, published 2025):

B1: PF1802_M021 (GLP1-Fc-mut.IGF1) (Fc fusion)
chain: HGEGTFTSDVSSYLEEQAAKEFIAWLVKGGGGSAPAPGGGGSDKTHTCPPCPAPELLGGPSVFLFPPKPKDTLMISRTPEVTCVVVDVSHEDPEVKFNWYVDGVEVHNAKTKPREEQYASTYRVVSVLTVEHMDWLNGKEYKCKVSNKALPAPIEKTISKAKGQPREPQVYTLPPSREEMTKNQVSLTCLVKGFYPSDIAVEWESNGQPENNYKTTPPVLDSDGSFFLYSKLTVDKSRWQQGNVFSCSVLHEALHNHYTQKSLSLSPGKGGGGSGGGGSGGGGSGGGGSGAHSGPATLCGAELVDALQFVCGDRGFYFNKPTGYGSSSRRAPQTGIVDECCARSCDLRRLEMYCAPLKPTKST
notes: M008 with a half-life-increasing Fc: N297A, L309E, Q311M, M428L
B2: PF1802_M022 (GLP1-Fc-mut.IGF1) (Fc fusion)
chain: HGEGTFTSDVSSYLEEQAAKEFIAWLVKGGGGSAPAPGGGGSDKTHTCPPCPAPELLGGPSVFLFPPKPKDTLMISRTPEVTCVVVDVSHEDPEVKFNWYVDGVEVHNAKTKPREEQYASTYRVVSVLTVEHWDWLNGKEYKCKVSNKALPAPIEKTISKAKGQPREPQVYTLPPSREEMTKNQVSLTCLVKGFYPSDIAVEWESNGQPENNYKTTPPVLDSDGSFFLYSKLTVDKSRWQQGNVFSCSVLHEALHNHYTQKSLSLSPGKGGGGSGGGGSGGGGSGGGGSGAHSGPATLCGAELVDALQFVCGDRGFYFNKPTGYGSSSRRAPQTGIVDECCARSCDLRRLEMYCAPLKPTKST
notes: M008 with a half-life-increasing Fc: N297A, L309E, Q311W, M428L
B3: PF1802_M020 (GLP1-Fc-mut.IGF1) (Fc fusion)
chain: HGEGTFTSDVSSYLEEQAAKEFIAWLVKGGGGSAPAPGGGGSDKTHTCPPCPAPELLGGPSVFLFPPKPKDTLMISRTPEVTCVVVDVSHEDPEVKFNWYVDGVEVHNAKTKPREEQYASTYRVVSVLTVYHMDWLNGKEYKCKVSNKALPAPIEKTISKAKGQPREPQVYTLPPSREEMTKNQVSLTCLVKGFYPSDIAVEWESNGQPENNYKTTPPVLDSDGSFFLYSKLTVDKSRWQQGNVFSCSVLHEALHNHYTQKSLSLSPGKGGGGSGGGGSGGGGSGGGGSGAHSGPATLCGAELVDALQFVCGDRGFYFNKPTGYGSSSRRAPQTGIVDECCARSCDLRRLEMYCAPLKPTKST
notes: M008 with a half-life-increasing Fc: N297A, L309Y, Q311M, M428L

Each binder was assayed against T1, Human FcRn-GST protein (human, UniProt P55899 24-297; P61769 21-119, limits assumed) (assay: ELISA at pH 6.0: fusion protein coated on the plate, Human FcRn-GST titrated (x axis, ug/ml), anti-GST Ab-HRP, A450).
T1 construct: not shown: GST tag
T1 sequence (P55899 24-297 limits assumed, chain 1 of 2): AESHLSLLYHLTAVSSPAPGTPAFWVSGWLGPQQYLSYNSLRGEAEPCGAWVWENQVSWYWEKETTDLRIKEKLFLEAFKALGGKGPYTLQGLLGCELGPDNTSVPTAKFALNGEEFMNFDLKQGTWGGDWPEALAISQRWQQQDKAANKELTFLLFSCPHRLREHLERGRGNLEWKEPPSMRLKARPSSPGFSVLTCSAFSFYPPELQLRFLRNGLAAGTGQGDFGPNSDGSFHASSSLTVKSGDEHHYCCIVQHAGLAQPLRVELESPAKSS
T1 sequence (P61769 21-119 limits assumed, chain 2 of 2): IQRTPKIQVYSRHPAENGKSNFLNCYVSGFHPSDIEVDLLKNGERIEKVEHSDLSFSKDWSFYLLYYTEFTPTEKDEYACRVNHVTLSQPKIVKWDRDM
Procedure: To investigate the binding affinity of the PF1802_M020, M021, and M022 substances, obtained by introducing three types of blood half-life-increasing Fc to the PF1802-M008 candidate substance, to human FcRn, ELISA was performed, and to investigate the difference in binding affinity depending on pH, two situations at pH 6.0 and pH 7.4 were prepared, respectively. Specifically, each of the PF1802_M020, M021, and M022 substances was coated at 4 μg/mL on a 96 well immunoplate, and reacted with PBS (pH 6.0 and 7.4) containing 4% skim milk at room temperature for 1 hour to block non-specific binding. Thereafter, the Human FcRn-GST protein was diluted 4-fold from a maximum concentration of 5 μg/mL to 0.0003 μg/mL using PBS (pH 6.0, 7.4) containing 1% skim milk, and then dispensed into each well, followed by incubation at room temperature for 1 hour.

Binder | EC50 (read off the curve) [µg/mL]
B1 | ~0.03
B2 | ~0.03
B3 | ~0.04
